According to article doi:10.1101/2022.01.10.475532 (bioRxiv, 2022):

Target: recombinant S trimer protein of the WT SARS-CoV-2 strain (SARS-CoV-2 WT (Wuhan-Hu-1), UniProt P0DTC2, stabilised)
Assay: ELISA

B1: MAb S3H3 (IgG) (antibody, V domains shown)
VH: QVQLQQPGAELVRPGASVKLSCKASGYSFTRFWMNWVKQRPGQGLEWIGMIHPSDSETRLNQKFKDKATLTVDKSSTTAYMQLSSPTSEDSAVYYCARKDYDYDAWFAYWGQGTLVTVSA
VL: DIVLTQSPASLAVSLGQRATISCRASKSVSASVYSYMHWYQQKPGQPPKLLIYLASSLESGVPARFSGSGSGTDFTLNIHPVEEEDAATYYCHHSRELPPAFGGGTKLEIK
binding result: binds
